Source: article PMC2173940

Assays:
soluble FcγRIIb = soluble FcγRIIb (UniProt P31994); assay: SPR; BIAcore 2000; FcγRIIa, FcγRIIb or FcγRIIIa amine-coupled to CM5 (8000-10000 RU); IgG1-4, with or without EndoS treatment, injected, typically 10-1.25 µg/ml, 35 µl/min, 25°C; 10 mM HEPES pH 7.5, 150 mM NaCl, 0.005% P20, 3.4 mM EDTA; 1:1 Langmuir fit; empty flow cell as reference
soluble FcγRIIa = soluble FcγRIIa (UniProt P12318); assay: as above
human IgG1 (human) = assay: SPR; BIAcore 2000; IgG1-4 or deglycosylated IgG1-4 amine-coupled to CM5 (8000-10000 RU); EndoS or EndoS(E235Q) injected, typically 10-1.25 µg/ml, 35 µl/min, 25°C; 10 mM HEPES pH 7.5, 150 mM NaCl, 0.005% P20, 3.4 mM EDTA; 1:1 Langmuir fit; deglycosylated IgG flow cells as reference
human IgG2 (human) = assay: as above
human IgG3 (human) = assay: as above
human IgG4 (human) = assay: as above

Chain of UniProt P31994 (P31994 43-217): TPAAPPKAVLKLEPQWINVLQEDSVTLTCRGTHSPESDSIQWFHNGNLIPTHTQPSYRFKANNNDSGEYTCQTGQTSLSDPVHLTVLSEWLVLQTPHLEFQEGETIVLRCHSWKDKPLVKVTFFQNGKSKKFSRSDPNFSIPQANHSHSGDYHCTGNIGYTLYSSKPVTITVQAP
Chain of UniProt P12318 (P12318 34-217): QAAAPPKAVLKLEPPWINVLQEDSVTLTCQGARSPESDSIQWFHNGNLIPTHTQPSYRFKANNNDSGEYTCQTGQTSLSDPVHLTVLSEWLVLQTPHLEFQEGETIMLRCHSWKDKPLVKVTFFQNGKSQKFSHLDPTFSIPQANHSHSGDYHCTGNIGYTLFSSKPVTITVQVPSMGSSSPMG

## human IgG4 (antibody)
Soluble FcγRIIb
  Kd: 200 nM
  koff: 0.0069 s⁻¹
  kon: 34000 M⁻¹ s⁻¹

## human IgG1 (antibody)
Soluble FcγRIIa
  Kd: 97 nM

B1: EndoS(E235Q), inactive form of EndoS (enzyme)
chain: EEKTVQVQKGLPSIDSLHYLSENSKKEFKEELSKAGQESQKVKEILAKAQQADKQAQELAKMKIPEKIPMKPLHGSLYGGYFRTWHDKTSDPTEKDKVNSMGELPKEVDLAFIFHDWTKDYSLFWKELATKHVPKLNKQGTRVIRTIPWRFLAGGDNSGIAEDTSKYPNTPEGNKALAKAIVDEYVYKYNLDGLDVDVQHDSIPKVDKKEDTAGVERSIQVFEEIGKLIGPKGVDKSRLFIMDSTYMADKNPLIERGAPYINLLLVQVYGSQGEKGGWEPVSNRPEKTMEERWQGYSKYIRPEQYMIGFSFYEENAQEGNLWYDINSRKDEDKANGINTDITGTRAERYARWQPKTGGVKGGIFSYAIDRDGVAHQPKKYAKQKEFKDATDNIFHSDYSVSKALKTVMLKDKSYDLIDEKDFPDKALREAVMAQVGTRKGDLERFNGTLRLDNPAIQSLEGLNKFKKLAQLDLIGLSRITKLDRSVLPANMKPGKDTLETVLETYKKDNKEEPATIPPVSLKVSGLTGLKELDLSGFDRETLAGLDAATLTSLEKVDISGNKLDLAPGTENRQIFDTMLSTISNHVGSNEQTVKFDKQKPTGHYPDTYGKTSLRLPVANEKVDLQSQLLFGTVTNQGTLINSEADYKAYQNHKIAGRSFVDSNYHYNNFKVSYENYTVKVTDSTLGTTTDKTLATDKEETYKVDFFSPADKTKAVHTAKVIVGDEKTMMVNLAEGATVIGGSADPVNARKVFDGQLGSETDNISLGWDSKQSIIFKLKEDGLIKHWRFFNDSARNPETTNKPIQEASLQIFNIKDYNLDNLLENPNKFDDEKYWITVDTYSAQGERATAFSNTLNNITSKYWRVVFDTKGDRYSSPVVPELQILGYPLPNADTIMKTVTTAKELSQQKDKFSQKMLDELKIKEMALETSLNSKIFDVTAINANAGVLKDCIEKRQLLKK
Human IgG1 (human)
  Kd: 420 nM
  koff: 0.0176 s⁻¹
  kon: 42000 M⁻¹ s⁻¹
Human IgG2 (human)
  Kd: 210 nM
  koff: 0.0025 s⁻¹
  kon: 12000 M⁻¹ s⁻¹
Human IgG3 (human)
  Kd: 83 nM
  koff: 0.0089 s⁻¹
  kon: 107000 M⁻¹ s⁻¹
Human IgG4 (human)
  Kd: 140 nM
  koff: 0.002 s⁻¹
  kon: 15000 M⁻¹ s⁻¹
